Assay: soluble on expression in E. coli; label from the status in PepcDB or PDB records

Sequence | soluble on expression in E. coli
MGSDKIHHHHHHMSIEAYDQLAIFAVVARERSFTRAAARLGMSQPALSRAMRQLEERLGIRLLARTTRSVSATEAGEHLLRVVAPRFEEIDTELALLSQFRDKPAGRLRITAGEHPAVTILQPALAKILPDHPDIRVEVIVDYGLTDIVAEGYDAGVRLGEQIAKDMIAVRIGPEVRMAVVGSPDYFARHPRPRTPRDLIRHNCIAIRLPTYGGIFPWEFEKKGEELKVRVEGQLVFNNIAMRLDAALRGLGLTYMPEDLVKAHVREGVLVRVLSDWCPPIPGYHLYYPSRRQSSPAFTVLRDALRYLG | not soluble
MAHHHHHHMPARWHNKQKKGSNGHKRPSTGGNGSAARRDIGFIPPGASAVQNSSAHHADTFMYRFPQNFPVPRRLRHAPTSLVEAVNDFHFAMMNDRPRNEFYYELLKRHVTPETGVLEIGAGSGLLSLMAAQLGAKWVVAVEGSAEMAKLARANICANKMEHKVTVLHMLSTELTLRHLPDRPDVMVSEILGTLLLGESALDYIADVRERLLKPTTKIIPQHGTQYAVPIECDTLRDVCAVSGWKGLELSHMTALQDTVSIVFAKQYGFRMSSVPFRRLSEPIALFSVDFASAVRRDIPMNLKLDVKATSSGTAHAMLYYWKAFDGDLVMSTDPADTLNNFPRDMQWGQALQLLDAANGPFPTPVVFTEGEELKFQCHFSSDRVTVHIHLCPTAEAAASPAKTTPTDNDAIKTEKEACEKVNKGKK | soluble
MLVTGLEILRKARAEGYGVGAFNTNNMEFTQAILEAAEEMKSPVILALSEGAMKYGGRALTRMVVALAQEARVPVAVHLDHGSSYESVLKALREGFTSVMIDKSHEDFETNVRETKRVVEAAHAVGVTVEAELGRLAGIEEHVAVDEKDALLTNPEEARIFMERTGADYLAVAIGTSHGAYKGKGRPFIDHPRLARIAELVPAPLVLHGASAVPQELVERFRAAGGEIGEASGIHPEDIKKAISLGIAKINTDTDLRLAFTALVRETLGKNPKEFDPRKYLGPAREAVKEVVKSRMELFGSVGRA | soluble
MRITLVTDSTSDLPQDLRGRLGVRVVPLYVNLSGAIYRDWEEITPTEIFQKVREGAAFPTTSQPSPEDFARVYREALEEADHVLSLHISGKLSGTVQSAELAAQEFPGRVTVVDTQAASLGVGMMVLRAKELLEEGQSLEAVLAELERLRRDHFVRFSVATLEFLKRGGRIGGAQAFLGTLLNLKPVLTLKEGRVEAAGRARGEKKAREEILKAFRAWAEGRKRIRAYFLYSGDEDAVAALRQEVLASGLPVEEALVNELGAVIASHTGPGTYGFYAYSL | soluble
MAPKSILITGANRGIGLGLLKQFIKNKDVQIIIGTCRDPSNATELNSIKDTRVHILQLDIDCDDSIRKLGAEVEKLVGEDGLTVLINNAGIFVPYDIDGEKSRSTLIRQLETNTISTVLITQELLPLLKRAAAKNRGEGYSINRSAIINISSTAGSITKIDASYNIPLVAYRMSKSALNSFGKSCSVDLAKYHILVTTFCPGWVKTDMGGANGKLEIDDATKTLSDNILILGDAHHGAYLNADLTVIPN | soluble
MTSRWGKYLLSGIMIAVLAGCQSRPTDRGQQYKDGRLEQSLELVNEPNAAGKPVNAKDYSDQVKVINQSSPGLYNRNSDTFNAVQNWMLAGADTSKLSLFGLNAYQMEGVDNFGNVQFTGYYTPVLQARYTPQGEFRHPLYRMPAKGKRRLPDRAAIYAGALDNRNLIIAYTNSLVDNFMMEVQGSGYVDYGDGRPLTFFGYAGKNGHAYRSIGKVLIDRGEVARADMSMQAIRQWAENHSEAEVRELLEQNPSFVFFKPVMYAPVKGASAVPLIAKASVASDKSLIPPGTTLLAEVPLLDDQGKFTGKYQMRLMVALDVGGAIKGQHFDIYQGIGHEAGQAAGFYNHYGRVWVLKNAQSSGPLFTAYKGGTQSEPTSNDSSLLVNNQDR | not soluble
MQYHYQWLTPFDAKRTTVVCLHGFTGTLATFAAVFPSQTPYNVLGIDLPGHGATASLVAPERYTMKQVCHDIAELTESLNLPCFCLLGYSMGARTALGFALHYPQKVQHLLLESGSPGLATAAERQARICQDHRLAERLLEEPLVDFIDFWQELPLFQTQKALSVAQQMAIRQERLSQSAFGLVSSLWYMGTGAQESYWERLAELQPIPTDLLVGGEDQKFIGIAKKMQARQPLLRLTIFPEAGHCIHLEQPTIFYEKVTALLEGAI | not soluble
MAHHHHHHMHFSPLVFHIHFTRSFSLFFRFCMQLATREGWWEEGGEKEGVFEGAIEEKTVMSFFFDEDSGDEPATKRHCTEQQQRAQGRPHGGFFNGNGEKDEDEDERPVLARAGSDRVGLRLLQGMQKPTSSSSSVLLSGKEKMRVVEAYVPLSVGGFMESSAETAVDNLSQIKPGNVMCLRSPASSASQASTGMNFVRETDLTEEERRYGKRLSSNMTQELFEVGRVDRDTGMLEAIFLDGTRRNLKAYAVRPAGFVEKELFRQWKRDPNSRPVRTVYAAPQDANASPSLSSTTQTTRTTAVDSAKRKNNTAAVELMPWWVSPQLIVRVVEKSAGDLFGKKFVVKSLSRKEGKIRLAPWQRSAGNGESAENSPVDIVGCEALETIVPKVGEQGIIVLGNMRGELVKVMERHRDVNGELASLKVCSTLTGNEFTVGPHEVCQLACPRP | not soluble
MGSDKIHHHHHHMIKVAAAGGGTGGHLYPLLAILETLAKRVDVKVLFFAVKGKIDERVVRKDHPEFETVSIDVRGLLRPLHHPKNLWRTLKIGIATIEVKKHLKRFKPDLVVLTGGYISGVVGLAAKDLGIPIFVHEQNVVPGLAVKVLSQYAKKVFVSFERTRDYLREWQDKIVVTGCPVRETEKEAPLKDFVLVLGGSLGSEAINELMEKVYPELQETQFVHSTGSDDWTERLSVFPNVTALTYIDPMGAYWKKAIASISRAGASTIAEMMYYGVPGILIPWESSAESHQLENALEAERLGYAIVIRENEASPRKIIESIDKVVKKGKIEKMKENPASKISKEILGEIM | not soluble
MADYWKDVLPVDPYVVKSRSMLQDIDRQIITQLYQPLIGPVAFSLYMTLWGELEQNRLWGGESTHRQLMGMTQSNLKTIHQEQGKLEGIGLLKVYMKESERQERLFIYELLPPLRPNEFFEDGMLNVFLYNRVGKTKYQQLKQFFTHPAISEDAKDITRPFNHAFESLQPSEWKLTSDMEETVRLAEGSEYTSVGQSPSYTITEDVFDFDLFLAGLSETMIPRKAMTQQVRDTIKKLSYLYGIDPLQMQNVVMSAIDERDVITTEALRKAASDWYQIERNGQLPDLVEKTQPVHLREGEQPAEEDSLDGKLIALLEAISPKKLLQDIADGTEPSKADLKIIEEIMFEQKLEPGVTNVLIYYVMLKTDMKLSKNYIQKIASHWARKKVKTVREAMKLAIEENRQYLEWAEGKTKSSKRNQKVIREEKLPDWMTEKETASDSESGQQKLHPQDLEEQKKKMMEEMQKLKKYSAY | not soluble
MNRYITRGIDNNLPIILQQQLWKLVAQRENEQSKELEAIDYFHIFQFNMHNDQLCIKHKQERPEYIKTHKANYSKAINIKKVYIIREDDVDLSYYVMLLPEEYAAALEHHHHHH | soluble
MGSDKIHHHHHHMALFESYDRRIDHINAVLNEYGINGIEDAKAICDAKGIDPYTMCKETQPICFENACWAYVVGAAIAIKKGCTNAAEAAEAIGIGLQAFCIAGSVADDRKVGIGHGNLAARLLREETKCFAFLAGHESFAAAEGAIKIAEMANKVRKEPLRVILNGLGKDAAKIISRINGFTYVQTQFDYMTGEVNVIEEKAYSNGLRAKVKCYGADDVREGVAIMRKEGVDVSITGNSTNPTRFQHPVAGTYKKECMENGHPYFSVASGGGTGRTLHPDNMAAGPASYGMTDTMGRMHGDAQFAGSSSVPAHVEMMGFLGMGNNPMVGATVAVAVAIEEAMKK | not soluble
MGSDKIHHHHHHMKCNDKLAPFEVFDHVVNKKLSFRHVTMDDVDMLHSWMHEEHVIPYWKLNIPLVDYKKHLQTFLNDDHQTLMVGAINGVPMSYWESYWVKEDIIANYYPFEEHDQGIHLLIGPQEYLGQGLIYPLLLAIMQQKFQEPDTNTIVAEPDRRNKKMIHVFKKCGFQPVKEVELPDKIGLLMKCEQNVFEKRWSDWKMNKF | not soluble
MELQQLPQHVRDAFHAPNTPPRQLGVAWDYGWRVGNVAFSQVIHPDRSAWSARVRDKLQPQGLRVVRPLKSTDGRYINAGWRANSFEEGTLARRVDETVVAALRLDTALADIDVPDSFSEPDSHDLFSLADHSAWAPEPMVALGVTSDAEAVFLNPAQLTAQRLLPKIVLLLRDIDAPIQVTHADMFATTIYSGNQMPVVTDLVGVARPYGYTAAVCIVDALLAGAVDEGIIDRFSHIQHRDQLLLRALVYRIAVHALHPESTSNTGTNLEWVSQTIMSRASVTL | soluble
MKEVIFTENAPKPIGPYSQAIKAGNFLFIAGQIPIDPKTGEIVKGDIKDQTRQVLENIKAILEAAGYSLNDVIKVTVYLKDMNDFAKMNEVYAEYFGESKPARVAVEVSRLPKDVLIEIEAIAYKE | soluble
SLRQIRTVIQYQTVRYDILPLSPVSRNRLAQVKRKILVLDLDETLIHSHHDGVLRPTVRPGTPPDFILKVVIDKHPVRFFVHKRPHVDFFLEVVSQWYELVVFTASMEIYGSAVADKLDNSRSILKRRYYRQHCTLELGSYIKDLSVVHSDLSSIVILDNSPGAYRSHPDNAIPIKSWFSDPSDTALLNLLPMLDALRFTADVRSVLSRNLHQHRLW | soluble
MGSDKIHHHHHHMAAVGPRTGPGTGAEALALAAELQGEATCSICLELFREPVSVECGHSFCRACIGRCWERPGAGSVGAATRAPPFPLPCPQCREPARPSQLRPNRQLAAVATLLRRFSLPAAAPGEHGSQAAAARAAAARCGQHGEPFKLYCQDDGRAICVVCDRAREHREHAVLPLDEAVQEAKELLESRLRVLKKELEDCEVFRSTEKKESKELLKQMAAEQEKVGAEFQALRAFLVEQEGRLLGRLEELSREVAQKQNENLAQLGVEITQLSKLSSQIQETAQKPDLDFLQEFKSTLSR | not soluble
MFENITAAPADPILGLADLFRADERPGKINLGIGVYKDETGKTPVLTSVKKAEQYLLENETTKNYLGIDGIPEFGRCTQELLFGKGSALINDKRARTAQTPGGTGALRVAADFLAKNTSVKRVWVSNPSWPNHKSVFNSAGLEVREYAYYDAENHTLDFDALINSLNEAQAGDVVLFHGCCHAPTGIDPTLEQWQTLAQLSVEKGWLPLFDFAYQGFARGLEEDAEGLRAFAAMHKELIVASSYSKNFGLYNERVGACTLVAADSETVDRAFSQMKAAILANYSNPPAHGASVVATILSNDALRAIWEQELTDMRQRIQRMRQLFVNTLQEKGANRDFSFIIKQNGMFSFSGLTKEQVLRLREEFGVYAVASGLVNVAGMTPDNMAPLCEAIVAVL | soluble
MSLQGQIDIPLDIVGRWQADQSAYELAKTYYWAKVAHLAEHNDQLAQPTYEGAHLADISEINNAPATARRMLVVSSDLFRAQQTAHAFADLMGLDVELDPRLRERSFGEWEGMTREEICEHYADDYHSWRAHTGGETKHGVESRIHTGRRGAEAVRDIVAKHHDETMPTTLLLVGHGSWIVATVAVLLDMDPDDLNNVGAMRNAFWTRMTPHTDPRNADRPTWKLEEFNQGPAIASFADWENGPESLRAPGMPLWKPIIQEGHHHHHH | not soluble
MSHRNDSSRKHRKSRSIKNDQHYPTVSFDGAESVDIPADEGKSPVSTHLSLASNPTEFKFMDEIALLKRGRIDKDAPKHPYNRRGQQPMMKKEISVTSAHSNSSLPVRSPAIMTLMGGVPEAEKEYNVGKGGLLKISKMKEGGKRYEVSANERFTVFQQTAGQTCLFTFKA | not soluble

— the DeepSol protein solubility set
